From US20240239915A1 (Zymeworks, published 2024)
Like-named read-outs stand apart in the source and are kept apart here. Blank lines part the entries; values can stand above or below the binder they belong to.

Legend:
[1] = target: T1, Recombinant Cynomolgus Monkey Fc gamma RI/CD64 Protein, CF (R&D Systems), His-tagged (cynomolgus, UniProt P12314 11-288 (human entry)); assay: SPR (Biacore T200); His-tagged receptor captured on anti-His antibody chip, antibody as analyte at 4.7 µM
T1 construct: also called cynomolgus FcγRI; cFcγRI
T1 chain: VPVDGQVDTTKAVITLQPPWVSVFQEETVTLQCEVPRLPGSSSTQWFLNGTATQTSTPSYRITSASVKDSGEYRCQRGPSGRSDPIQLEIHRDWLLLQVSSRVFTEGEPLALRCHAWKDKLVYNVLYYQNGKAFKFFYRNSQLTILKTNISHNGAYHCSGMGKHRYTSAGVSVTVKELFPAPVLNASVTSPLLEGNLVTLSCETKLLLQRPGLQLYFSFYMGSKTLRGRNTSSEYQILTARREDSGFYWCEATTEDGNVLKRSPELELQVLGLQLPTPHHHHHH

[2] = target: T2, human FcRn (human neonatal Fc receptor large subunit p51 and beta2-microglobulin), biotinylated (human, UniProt P55899 24-297; P61769 21-119, biotinylated (site not stated)); assay: BLI (Octet RED384), biotinylated FcRn on streptavidin biosensor, binding at pH 6.0, dissociation at pH 7.4
[3] = target: T3, Recombinant Human Fc gamma RIIA/CD32a (H167) Protein (R&D Systems), His-tagged (human, UniProt P12318 34-218); assay: SPR (Biacore T200); receptor immobilized directly on CM5 chip, antibody as analyte at 4.7 µM
T3 construct: also called human FcγRIIa (H167); hFcγRIIa (H167)
T3 sequence: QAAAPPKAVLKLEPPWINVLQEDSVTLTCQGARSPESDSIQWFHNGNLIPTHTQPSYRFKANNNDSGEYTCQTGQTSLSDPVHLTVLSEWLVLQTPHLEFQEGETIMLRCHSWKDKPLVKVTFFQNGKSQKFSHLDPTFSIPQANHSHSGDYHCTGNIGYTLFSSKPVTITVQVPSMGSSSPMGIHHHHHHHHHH

[4] = target: T4, Recombinant Human Fc gamma RIIIA/CD16a protein (R&D Systems), His-tagged (human, UniProt P08637 17-208); assay: as above
T4 construct: also called human FcγRIIIa; hFcγRIIIa

[5] = target: T5, Recombinant Human Fc gamma RIIA/CD32a (R167) Protein (R&D Systems), His-tagged (human, UniProt P12318 36-218); assay: as above
T5 construct: also called human FcγRIIa; hFcγRIIa
T5 chain: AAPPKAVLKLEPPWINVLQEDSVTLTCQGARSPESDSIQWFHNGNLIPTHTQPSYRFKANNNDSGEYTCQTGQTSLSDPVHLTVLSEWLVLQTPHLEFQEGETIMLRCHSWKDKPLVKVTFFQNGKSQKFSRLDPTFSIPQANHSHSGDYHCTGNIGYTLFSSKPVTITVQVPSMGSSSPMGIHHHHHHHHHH

[6] = target: T6, Recombinant Human Fc gamma RIIB/C (CD32b/c) Protein (R&D Systems), His-tagged (human, UniProt P31994 46-217); assay: as above
T6 construct: also called human FcγRIIb/c; hFcγRIIb/c
T6 sequence: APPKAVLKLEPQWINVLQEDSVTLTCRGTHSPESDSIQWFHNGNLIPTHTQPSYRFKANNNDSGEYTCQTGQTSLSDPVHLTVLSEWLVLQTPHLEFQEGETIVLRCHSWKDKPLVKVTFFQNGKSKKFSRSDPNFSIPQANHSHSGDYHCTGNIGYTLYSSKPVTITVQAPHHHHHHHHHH

[7] = target: T7, Recombinant Cynomolgus Fc gamma RIIA/CD32a Protein (R&D Systems), His-tagged (cynomolgus); assay: as above
T7 construct: also called cynomolgus FcγRIIa; cFcγRIIa
T7 chain: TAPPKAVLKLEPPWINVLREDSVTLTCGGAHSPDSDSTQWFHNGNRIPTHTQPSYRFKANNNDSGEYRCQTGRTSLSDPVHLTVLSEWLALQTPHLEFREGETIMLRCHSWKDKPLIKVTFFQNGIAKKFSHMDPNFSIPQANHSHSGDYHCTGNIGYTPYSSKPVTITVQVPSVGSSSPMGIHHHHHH

[8] = target: T8, Recombinant Cynomolgus Fc gamma RIIB protein (R&D Systems), His-tagged (cynomolgus); assay: as above
T8 construct: also called cynomolgus FcγRIIb; cFcγRIIb
T8 chain: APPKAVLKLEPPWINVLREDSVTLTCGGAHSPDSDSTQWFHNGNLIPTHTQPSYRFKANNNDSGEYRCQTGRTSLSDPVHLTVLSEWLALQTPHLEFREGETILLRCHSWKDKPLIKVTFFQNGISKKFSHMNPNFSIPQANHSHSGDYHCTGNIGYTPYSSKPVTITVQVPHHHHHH

[9] = target: T9, Recombinant Cynomolgus Fc gamma RIII/CD16 Protein (R&D Systems), His-tagged (cynomolgus, UniProt Q8SPW2 17-208); assay: as above
T9 construct: also called cynomolgus FcγRIII; cFcγRIII
T9 chain: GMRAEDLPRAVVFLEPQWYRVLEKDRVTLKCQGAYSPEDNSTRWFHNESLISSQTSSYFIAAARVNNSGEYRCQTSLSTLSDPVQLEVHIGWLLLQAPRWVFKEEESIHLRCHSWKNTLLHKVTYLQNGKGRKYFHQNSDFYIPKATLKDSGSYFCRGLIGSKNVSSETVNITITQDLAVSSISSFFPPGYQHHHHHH

[10] = target: T2, human FcRn (human neonatal Fc receptor …); assay: BLI (Octet RED384), biotinylated FcRn on streptavidin biosensor, binding and dissociation at pH 6.0
[11] = target: T2, human FcRn (human neonatal Fc receptor …); assay: BLI (Octet RED384), biotinylated FcRn on streptavidin biosensor, binding at pH 6.0, dissociation at pH 7.4; dissociation at pH 7.4 after binding at pH 6.0
[12] = target: T10, Recombinant Human Fc gamma RIIIB/CD16b Protein (R&D Systems), His-tagged (human, UniProt O75015 20-208); assay: SPR (Biacore T200); receptor immobilized directly on CM5 chip, antibody as analyte at 4.7 µM
T10 construct: also called human FcγRIIIb; hFcγRIIIb
T10 chain: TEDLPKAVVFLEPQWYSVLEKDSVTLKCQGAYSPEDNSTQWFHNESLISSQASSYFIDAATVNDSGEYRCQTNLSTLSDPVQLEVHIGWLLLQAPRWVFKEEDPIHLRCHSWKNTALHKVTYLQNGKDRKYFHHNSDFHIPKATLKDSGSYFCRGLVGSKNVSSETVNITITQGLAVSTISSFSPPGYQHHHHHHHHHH

[13] = target: T11, Recombinant Human Fc gamma RIIIA/CD16a (V176F) Protein (R&D Systems), His-tagged (human, UniProt P08637 17-208); assay: as above
T11 construct: no further substitution applied; also called human FcγRIIIa (V176F); hFcγRIIIa (V176F)

[14] = target: T10, Recombinant Human Fc gamma RIIIB/CD16b …; assay: SPR (Biacore T200): human FcγRIIIb immobilised directly on a CM5 chip, antibody as analyte; RU plotted against antibody concentration
[15] = target: T7, Recombinant Cynomolgus Fc gamma …; assay: SPR (Biacore T200); receptor immobilized directly on CM5 chip, antibody as analyte at 4.7 µM
[16] = target: T8, Recombinant Cynomolgus Fc gamma RIIB …; assay: as above
[17] = target: T9, Recombinant Cynomolgus Fc gamma …; assay: as above
[18] = target: T4, Recombinant Human Fc gamma RIIIA/CD16a …; assay: SPR (Biacore T200): human FcγRIIIa immobilised directly on a CM5 chip, antibody as analyte; RU plotted against antibody concentration
[19] = target: T10, Recombinant Human Fc gamma RIIIB/CD16b …; assay: SPR (Biacore T200); receptor immobilized directly on CM5 chip, antibody as analyte at 4.7 µM
[20] = target: T3, Recombinant Human Fc gamma RIIA/CD32a …; assay: as above; remark: listed apart in the source
[21] = target: T11, Recombinant Human Fc gamma RIIIA/CD16a …; assay: as above; remark: listed apart in the source
[22] = target: T4, Recombinant Human Fc gamma RIIIA/CD16a …; assay: as above; remark: listed apart in the source
[23] = target: T6, Recombinant Human Fc gamma RIIB/C …; assay: as above; remark: listed apart in the source

T4 sequence (P08637 other isoform, or with tags, fused parts or gaps): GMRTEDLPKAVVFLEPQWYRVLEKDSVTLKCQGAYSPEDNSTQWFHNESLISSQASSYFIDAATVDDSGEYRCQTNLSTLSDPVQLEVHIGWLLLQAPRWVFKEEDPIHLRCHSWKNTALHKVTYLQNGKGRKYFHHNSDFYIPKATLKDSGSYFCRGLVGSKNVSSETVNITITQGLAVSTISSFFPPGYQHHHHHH
T11 sequence (P08637 other isoform, or with tags, fused parts or gaps V176F V176F): as the sequence (P08637 other isoform, or with tags, fused parts or gaps) above, with V160F counted along it

binding response (RU) [1]: 3200 RU
koff [2]: 2.8 s⁻¹
binding response (RU) [3]: 160 RU
binding response (RU) [4]: 420 RU
binding response (RU) [5]: 330 RU
binding response (RU) [6]: 78 RU
binding response (RU) [7]: 94 RU
binding response (RU) [8]: 270 RU
binding response (RU) [9]: 540 RU
Kd [10]: 5.5 nM
B1: L234A/L235A (LALA) variant of IgG1 WT of the anti-EGFR antibody panitumumab (antibody)
heavy: not shown
light: not shown
notes: Mutations in both CH2 domains

koff [11]: 2.1 s⁻¹
binding response (RU) [1]: 6700 RU
binding response (RU) [12]: 250 RU
binding response (RU) [3]: 1400 RU
binding response (RU) [13]: 530 RU
binding response (RU) [4]: 2400 RU
binding response (RU) [5]: 1700 RU
binding response (RU) [6]: 650 RU
binding response (RU) [7]: 910 RU
binding response (RU) [8]: 840 RU
binding response (RU) [9]: 2800 RU
Kd [10]: 5.8 nM
B2: IgG1 WT of the anti-EGFR antibody panitumumab (IgG2 Fc region replaced with a human wildtype IgG1 Fc region) (antibody)
heavy: not shown
light: not shown
notes: The legends were followed; also called anti-EGFR antibody IgG1 WT

binding result [14]: no binding (tested: 4.7 µM)
binding response (RU) [15]: 25 RU
binding response (RU) [16]: 110 RU
binding response (RU) [17]: 8.4 RU
binding result [18]: no binding (tested: 4.7 µM)
binding response (RU) [12]: 0.3 RU
binding response (RU) [3]: 24 RU
binding response (RU) [13]: -2.2 RU
binding response (RU) [4]: 0.4 RU
binding response (RU) [6]: 20 RU
binding response (RU) [19]: 0.3 RU
binding response (RU) [20]: 24 RU
binding response (RU) [21]: -2.2 RU
binding response (RU) [22]: 0.4 RU
binding response (RU) [23]: 20 RU
binding response (RU) [7]: 25 RU
binding response (RU) [8]: 110 RU
binding response (RU) [9]: 8.4 RU
B3: L234A/L235A/D265A (LALA-DA) variant of IgG1 WT of the anti-EGFR antibody panitumumab (antibody)
heavy: QVQLQESGPGLVKPSETLSLTCTVSGGSVSSGDYYWTWIRQSPGKGLEWIGHIYYSGNTNYNPSLKSRLTISIDTSKTQFSLKLSSVTAADTAIYYCVRDRVTGAFDIWGQGTMVTVSSASTKGPSVFPLAPSSKSTSGGTAALGCLVKDYFPEPVTVSWNSGALTSGVHTFPAVLQSSGLYSLSSVVTVPSSSLGTQTYICNVNHKPSNTKVDKRVEPKSCDKTHTCPPCPAPEAAGGPSVFLFPPKPKDTLMISRTPEVTCVVVAVSHEDPEVKFNWYVDGVEVHNAKTKPREEQYNSTYRVVSVLTVLHQDWLNGKEYKCKVSNKALPAPIEKTISKAKGQPREPQVYTLPPSREEMTKNQVSLTCLVKGFYPSDIAVEWESNGQPENNYKTTPPVLDSDGSFFLYSKLTVDKSRWQQGNVFSCSVMHEALHNHYTQKSLSLSPGK
light: not shown
notes: Mutations in both CH2 domains; positions are EU numbers
